Columns and labels:
Test in all cases: SPR, antibody captured, C2 as analyte;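 further: biacore SPR at 37 °C, anti-C2 mAbs captured via goat anti-human IgG on CM5 chips, double-referenced sensorgrams fit to a 1:1 kinetic or steady-state model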
human C2 E476A = target: T1, human C2 E476A (human, UniProt P06681 21-752)
T1 sequence: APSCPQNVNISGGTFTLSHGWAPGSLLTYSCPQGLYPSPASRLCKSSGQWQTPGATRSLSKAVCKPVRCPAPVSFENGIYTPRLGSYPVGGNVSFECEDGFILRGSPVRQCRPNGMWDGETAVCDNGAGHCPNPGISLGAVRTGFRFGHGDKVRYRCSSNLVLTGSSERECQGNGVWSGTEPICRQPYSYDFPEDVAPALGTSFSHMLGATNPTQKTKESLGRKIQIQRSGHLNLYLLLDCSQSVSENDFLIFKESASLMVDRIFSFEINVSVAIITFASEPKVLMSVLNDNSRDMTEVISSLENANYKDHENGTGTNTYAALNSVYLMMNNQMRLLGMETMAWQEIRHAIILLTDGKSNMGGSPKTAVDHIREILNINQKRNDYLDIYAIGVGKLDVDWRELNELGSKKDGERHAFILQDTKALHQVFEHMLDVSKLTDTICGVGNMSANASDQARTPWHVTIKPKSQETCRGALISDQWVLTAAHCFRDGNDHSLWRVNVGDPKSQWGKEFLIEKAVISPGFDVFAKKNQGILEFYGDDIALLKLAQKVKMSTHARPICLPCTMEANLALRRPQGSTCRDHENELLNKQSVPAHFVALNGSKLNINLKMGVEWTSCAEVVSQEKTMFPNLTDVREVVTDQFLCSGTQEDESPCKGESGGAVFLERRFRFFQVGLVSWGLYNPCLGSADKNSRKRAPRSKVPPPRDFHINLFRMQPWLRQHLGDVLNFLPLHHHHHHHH

human C2 M452A = target: T2, human C2 M452A (human, UniProt P06681 21-752)
T2 sequence: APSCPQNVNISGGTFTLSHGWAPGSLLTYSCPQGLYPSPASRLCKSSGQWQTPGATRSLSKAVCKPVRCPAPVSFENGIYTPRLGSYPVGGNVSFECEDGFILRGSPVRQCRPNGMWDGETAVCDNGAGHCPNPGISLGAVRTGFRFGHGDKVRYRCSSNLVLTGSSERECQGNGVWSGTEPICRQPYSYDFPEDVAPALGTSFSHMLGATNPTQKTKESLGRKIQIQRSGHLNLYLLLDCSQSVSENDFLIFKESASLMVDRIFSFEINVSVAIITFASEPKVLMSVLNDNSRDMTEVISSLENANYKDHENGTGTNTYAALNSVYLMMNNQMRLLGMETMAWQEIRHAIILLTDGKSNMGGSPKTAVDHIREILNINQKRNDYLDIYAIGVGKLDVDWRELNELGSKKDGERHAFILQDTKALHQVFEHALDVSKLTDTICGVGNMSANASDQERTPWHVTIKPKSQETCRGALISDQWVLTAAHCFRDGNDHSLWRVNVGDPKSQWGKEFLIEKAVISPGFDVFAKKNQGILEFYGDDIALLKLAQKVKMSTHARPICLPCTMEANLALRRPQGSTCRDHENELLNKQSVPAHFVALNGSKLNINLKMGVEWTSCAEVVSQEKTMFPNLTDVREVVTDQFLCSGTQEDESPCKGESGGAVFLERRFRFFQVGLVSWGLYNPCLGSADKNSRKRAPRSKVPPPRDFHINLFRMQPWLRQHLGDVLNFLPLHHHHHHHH

human C2 I438A = target: T3, human C2 I438A (human, UniProt P06681 21-752)
T3 sequence: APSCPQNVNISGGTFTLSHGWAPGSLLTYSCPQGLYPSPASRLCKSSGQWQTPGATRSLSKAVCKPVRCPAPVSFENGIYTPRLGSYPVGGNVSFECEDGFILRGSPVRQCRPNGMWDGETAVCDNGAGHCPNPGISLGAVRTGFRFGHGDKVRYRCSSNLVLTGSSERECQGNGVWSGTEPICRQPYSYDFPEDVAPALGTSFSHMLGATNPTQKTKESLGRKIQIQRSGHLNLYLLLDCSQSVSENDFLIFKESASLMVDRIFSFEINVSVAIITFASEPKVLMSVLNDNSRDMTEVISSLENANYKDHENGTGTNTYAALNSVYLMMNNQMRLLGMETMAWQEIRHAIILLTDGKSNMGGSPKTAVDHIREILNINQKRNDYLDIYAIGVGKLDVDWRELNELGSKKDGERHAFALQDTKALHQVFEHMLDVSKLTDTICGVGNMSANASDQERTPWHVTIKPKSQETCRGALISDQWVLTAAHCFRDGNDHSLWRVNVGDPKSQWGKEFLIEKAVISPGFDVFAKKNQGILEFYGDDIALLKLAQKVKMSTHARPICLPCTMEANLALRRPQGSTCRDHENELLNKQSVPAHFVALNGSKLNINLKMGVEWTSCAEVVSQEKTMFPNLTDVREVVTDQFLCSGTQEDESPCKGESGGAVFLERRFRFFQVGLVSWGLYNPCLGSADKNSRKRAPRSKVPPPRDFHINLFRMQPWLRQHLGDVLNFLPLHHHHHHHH

human C2 H451A = target: T4, human C2 H451A (human, UniProt P06681 21-752)
T4 sequence: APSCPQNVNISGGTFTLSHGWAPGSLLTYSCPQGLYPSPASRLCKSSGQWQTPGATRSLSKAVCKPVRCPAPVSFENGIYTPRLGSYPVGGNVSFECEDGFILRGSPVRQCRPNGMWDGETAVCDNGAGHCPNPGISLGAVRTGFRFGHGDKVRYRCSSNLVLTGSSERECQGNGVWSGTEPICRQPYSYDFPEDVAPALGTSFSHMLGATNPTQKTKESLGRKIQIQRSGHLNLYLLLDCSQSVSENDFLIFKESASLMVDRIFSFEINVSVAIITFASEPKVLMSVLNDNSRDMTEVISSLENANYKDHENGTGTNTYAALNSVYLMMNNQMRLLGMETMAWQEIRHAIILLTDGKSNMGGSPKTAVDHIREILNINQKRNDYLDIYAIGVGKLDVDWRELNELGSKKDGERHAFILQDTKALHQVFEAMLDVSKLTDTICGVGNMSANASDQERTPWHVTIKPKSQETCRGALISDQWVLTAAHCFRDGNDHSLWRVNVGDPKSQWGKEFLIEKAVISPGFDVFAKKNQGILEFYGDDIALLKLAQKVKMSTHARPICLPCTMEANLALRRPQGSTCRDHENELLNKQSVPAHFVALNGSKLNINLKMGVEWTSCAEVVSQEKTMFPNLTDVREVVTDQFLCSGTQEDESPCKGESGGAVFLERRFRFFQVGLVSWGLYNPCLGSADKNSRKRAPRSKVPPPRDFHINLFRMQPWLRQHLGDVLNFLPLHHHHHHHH

B1: RF16-226 (antibody, human IgG4 S228P, lambda)
heavy: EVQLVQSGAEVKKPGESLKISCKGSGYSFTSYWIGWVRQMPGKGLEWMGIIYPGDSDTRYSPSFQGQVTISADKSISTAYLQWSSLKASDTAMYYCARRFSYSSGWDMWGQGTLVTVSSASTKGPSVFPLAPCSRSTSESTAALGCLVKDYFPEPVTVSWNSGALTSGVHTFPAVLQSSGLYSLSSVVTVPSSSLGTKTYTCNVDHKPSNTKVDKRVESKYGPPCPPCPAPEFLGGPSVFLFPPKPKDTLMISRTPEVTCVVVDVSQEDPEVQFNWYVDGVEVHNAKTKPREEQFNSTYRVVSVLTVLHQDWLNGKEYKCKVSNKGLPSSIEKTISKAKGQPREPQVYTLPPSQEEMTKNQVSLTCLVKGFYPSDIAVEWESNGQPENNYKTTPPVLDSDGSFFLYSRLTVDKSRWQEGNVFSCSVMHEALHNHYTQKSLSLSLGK
light: SYELTQPPSVSVSPGQTARITCSGDALTSKYVAWYQQKSGLAPLLVIYEDTRRPSGIPAKFSGSSSGSVATLTISGAHGDDEADYYCYSTDASGHQRVFGGGTKLTVLSQPKAAPSVTLFPPSSEELQANKATLVCLISDFYPGAVTVAWKADGSPVKAGVETTKPSKQSNNKYAASSYLSLTPEQWKSHRSYSCQVTHEGSTVEKTVAPTECS
notes: pH-dependent anti-C2 antibody from a phage display library; also called WT
B1 showed a Kd (human C2 E476A) of 19.6 nM, a Kd (human C2 M452A) of 4.1 nM and a Kd (human C2 I438A) of 8.7 nM. It also gave a Kd (human C2 H451A) of 105 nM.

Reference: patent US20220332804A1 (CSL INNOVATION, published 2022)
